Patent US20260209362A1 (VIB VZW, published 2026)

What was measured:
[1] = target: human IL-12Rβ2 expressed on cells (human) (UniProt Q99665)
CD20 (human) = CD20 (human) (UniProt P11836)
[2] = target: T1, biotinylated human recombinant IL-12Rβ2 (produced in-house) (human, UniProt Q99665 24-622, random biotinylated); test: BLI (Octet Red), periplasmic extract on biotinylated human IL-12Rβ2 on streptavidin tips
T1 construct: Soluble recombinant protein used for panning, ELISA and BLI; also called hIL-12RB2; hIL12RB2
T1 sequence: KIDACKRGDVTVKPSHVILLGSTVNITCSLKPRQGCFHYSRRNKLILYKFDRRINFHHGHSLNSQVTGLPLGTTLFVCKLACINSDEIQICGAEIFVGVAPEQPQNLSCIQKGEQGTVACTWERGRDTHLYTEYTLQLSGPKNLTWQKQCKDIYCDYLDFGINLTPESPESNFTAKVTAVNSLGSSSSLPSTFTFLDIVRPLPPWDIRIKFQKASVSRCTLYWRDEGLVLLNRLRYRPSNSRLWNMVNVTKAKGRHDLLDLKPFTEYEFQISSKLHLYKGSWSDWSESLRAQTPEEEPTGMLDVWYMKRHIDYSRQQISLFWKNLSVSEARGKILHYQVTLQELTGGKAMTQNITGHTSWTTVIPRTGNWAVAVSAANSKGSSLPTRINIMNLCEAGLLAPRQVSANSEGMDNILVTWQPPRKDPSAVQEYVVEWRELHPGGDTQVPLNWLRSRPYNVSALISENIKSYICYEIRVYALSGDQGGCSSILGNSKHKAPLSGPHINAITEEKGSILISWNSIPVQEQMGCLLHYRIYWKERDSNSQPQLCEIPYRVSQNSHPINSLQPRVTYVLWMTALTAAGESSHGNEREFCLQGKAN

[3] = target: T2, biotinylated mouse recombinant IL-12Rβ2 (produced in-house) (mouse, UniProt P97378 24-637, random biotinylated); test: BLI (Octet Red), periplasmic extract on biotinylated mouse IL-12Rβ2 on streptavidin tips
T2 construct: Soluble recombinant protein used for panning, ELISA and BLI; also called mIL-12RB2; mIL12RB2
T2 sequence: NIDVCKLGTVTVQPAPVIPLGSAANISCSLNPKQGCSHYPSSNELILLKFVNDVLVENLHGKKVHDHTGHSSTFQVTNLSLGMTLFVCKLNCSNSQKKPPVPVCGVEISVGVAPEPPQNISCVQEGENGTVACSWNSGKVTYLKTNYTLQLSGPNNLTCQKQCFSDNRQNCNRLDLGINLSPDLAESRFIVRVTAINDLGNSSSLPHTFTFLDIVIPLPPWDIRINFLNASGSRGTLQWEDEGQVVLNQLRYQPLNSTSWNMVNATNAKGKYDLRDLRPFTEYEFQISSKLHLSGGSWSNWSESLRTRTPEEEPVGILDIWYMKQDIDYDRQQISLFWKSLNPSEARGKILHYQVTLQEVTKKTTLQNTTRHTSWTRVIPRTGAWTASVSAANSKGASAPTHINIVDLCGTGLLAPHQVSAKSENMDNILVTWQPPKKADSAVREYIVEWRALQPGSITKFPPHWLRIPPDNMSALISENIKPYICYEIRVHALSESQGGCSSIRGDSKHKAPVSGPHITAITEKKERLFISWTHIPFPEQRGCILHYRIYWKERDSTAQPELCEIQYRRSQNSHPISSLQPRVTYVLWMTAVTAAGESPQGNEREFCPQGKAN

[4] = target: T1, biotinylated human recombinant IL-12Rβ2 …; test: ELISA, periplasmic extract on biotinylated human IL-12Rβ2; signal over streptavidin control well
[5] = target: T2, biotinylated mouse recombinant IL-12Rβ2 …; test: ELISA, periplasmic extract on biotinylated mouse IL-12Rβ2; signal over streptavidin control well
[6] = target: T3, human IL-12Rβ2 expressed on cells (human, UniProt Q99665 24-862); test: flow cytometry, periplasmic extract VHH-HA on HEK293T cells transiently expressing human IL-12Rβ2
T3 construct: the cell lines are described by plasmid or cDNA number only; also called hIL-12RB2; HEK293T transiently transfected with human IL-12Rβ2
T3 sequence: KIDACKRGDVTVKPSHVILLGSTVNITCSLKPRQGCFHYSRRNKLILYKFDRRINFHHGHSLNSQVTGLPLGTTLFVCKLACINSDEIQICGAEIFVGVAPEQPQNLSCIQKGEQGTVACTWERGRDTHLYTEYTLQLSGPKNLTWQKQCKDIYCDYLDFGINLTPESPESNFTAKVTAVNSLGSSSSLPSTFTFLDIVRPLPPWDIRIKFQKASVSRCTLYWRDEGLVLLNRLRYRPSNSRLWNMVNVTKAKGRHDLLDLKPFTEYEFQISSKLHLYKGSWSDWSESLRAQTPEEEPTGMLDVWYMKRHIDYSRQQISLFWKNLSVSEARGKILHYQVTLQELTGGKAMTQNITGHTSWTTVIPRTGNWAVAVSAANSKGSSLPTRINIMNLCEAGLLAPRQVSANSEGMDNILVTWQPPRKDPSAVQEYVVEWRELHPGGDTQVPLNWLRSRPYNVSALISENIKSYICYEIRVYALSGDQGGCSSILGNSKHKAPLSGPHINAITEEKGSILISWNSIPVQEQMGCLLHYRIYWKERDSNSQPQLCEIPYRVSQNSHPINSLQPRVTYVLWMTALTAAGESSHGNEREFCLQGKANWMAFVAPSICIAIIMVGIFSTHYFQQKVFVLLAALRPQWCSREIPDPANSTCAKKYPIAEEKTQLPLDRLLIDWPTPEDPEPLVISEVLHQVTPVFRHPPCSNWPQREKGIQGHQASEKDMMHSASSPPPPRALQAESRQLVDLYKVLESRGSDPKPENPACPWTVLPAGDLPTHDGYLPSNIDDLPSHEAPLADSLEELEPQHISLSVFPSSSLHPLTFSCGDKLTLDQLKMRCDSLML

[7] = target: T4, mouse IL-12Rβ2 expressed on cells (mouse, UniProt P97378 24-874); test: flow cytometry, periplasmic extract VHH-HA on HEK293T cells transiently expressing mouse IL-12Rβ2
T4 construct: the cell lines are described by plasmid or cDNA number only; also called mIL-12RB2; HEK293T transiently transfected with mouse IL-12Rβ2
T4 sequence: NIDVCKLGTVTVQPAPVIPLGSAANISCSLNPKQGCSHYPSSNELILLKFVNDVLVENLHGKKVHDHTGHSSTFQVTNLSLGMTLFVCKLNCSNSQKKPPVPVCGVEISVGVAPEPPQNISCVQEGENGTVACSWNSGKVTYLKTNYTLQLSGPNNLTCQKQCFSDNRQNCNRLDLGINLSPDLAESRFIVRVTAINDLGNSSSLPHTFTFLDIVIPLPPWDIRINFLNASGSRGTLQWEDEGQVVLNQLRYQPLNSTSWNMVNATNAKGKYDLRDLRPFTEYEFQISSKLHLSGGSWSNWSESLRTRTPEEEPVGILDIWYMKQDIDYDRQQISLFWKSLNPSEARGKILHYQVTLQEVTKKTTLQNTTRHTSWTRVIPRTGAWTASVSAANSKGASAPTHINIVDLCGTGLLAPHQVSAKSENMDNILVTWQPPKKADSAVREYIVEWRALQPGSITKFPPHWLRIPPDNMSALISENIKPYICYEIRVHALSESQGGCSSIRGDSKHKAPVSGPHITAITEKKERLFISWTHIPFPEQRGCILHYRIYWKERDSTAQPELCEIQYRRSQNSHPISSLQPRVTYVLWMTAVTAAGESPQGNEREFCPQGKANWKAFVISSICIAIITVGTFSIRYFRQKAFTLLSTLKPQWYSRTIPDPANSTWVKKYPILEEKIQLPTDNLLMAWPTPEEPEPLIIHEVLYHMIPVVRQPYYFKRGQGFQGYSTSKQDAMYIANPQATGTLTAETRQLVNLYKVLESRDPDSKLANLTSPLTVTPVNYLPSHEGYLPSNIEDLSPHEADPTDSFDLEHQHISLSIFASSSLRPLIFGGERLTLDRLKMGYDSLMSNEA

[8] = target: T1, biotinylated human recombinant IL-12Rβ2 …; test: BLI (Octet Red), periplasmic extract on biotinylated human IL-12Rβ2 on streptavidin tips, 1:1 model
[9] = target: T2, biotinylated mouse recombinant IL-12Rβ2 …; test: BLI (Octet Red), periplasmic extract on biotinylated mouse IL-12Rβ2 on streptavidin tips, 1:1 model

Chain of CD20 (human) (P11836 whole entry): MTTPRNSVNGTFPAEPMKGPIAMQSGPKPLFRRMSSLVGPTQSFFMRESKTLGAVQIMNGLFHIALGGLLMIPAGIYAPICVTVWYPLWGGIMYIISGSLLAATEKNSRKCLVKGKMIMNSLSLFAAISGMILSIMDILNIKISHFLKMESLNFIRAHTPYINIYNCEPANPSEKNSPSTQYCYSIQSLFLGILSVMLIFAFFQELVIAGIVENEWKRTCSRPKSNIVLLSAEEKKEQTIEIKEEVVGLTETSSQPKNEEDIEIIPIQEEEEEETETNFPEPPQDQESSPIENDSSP

IgG1 (antibody)
% Specific Cell Lysis at 0.00125 ug/mL [1]: 47.5% | % Specific Cell Lysis at 0.025 ug/mL [1]: 50.4% | % Specific Cell Lysis at 0.5 ug/mL [1]: 48.7% | % Specific Cell Lysis at 10 ug/mL [1]: 44.6%

Rituximab (antibody)
% Specific Cell Lysis at 0.00125 ug/mL (CD20 (human)): 52.4% | % Specific Cell Lysis at 0.025 ug/mL (CD20 (human)): 64.7% | % Specific Cell Lysis at 0.5 ug/mL (CD20 (human)): 75.6% | % Specific Cell Lysis at 10 ug/mL (CD20 (human)): 77.5%

B1: anti-IL-12Rβ2 VHH clone 3CAHM11 (clone ID 21050) (VHH)
VHH: QVQLQESGGGLVQAGGSLRLSCAASGRTFNNYAMAWFRQAPGKEREFIAAITRSDTTLYIDSVKGRFTISRDNAKNTVALQMNSLKPEDTAVYYCAAGMPYSYSDYPRDSKYDYWGRGTQVTVSS
notes: Tested as periplasmic extract; not shown: C-terminal HA tag
Response [2]: 1.4 | Response [3]: 1.03 | hIL12RB2/control (ELISA) [4]: 3.04 ratio | mIL12RB2/control (ELISA) [5]: 38.8 ratio | % cells bound [6]: 37.6% | dMFI [6]: 684 | % cells bound [7]: 7.51% | dMFI [7]: 194 | koff [8]: 0.00519 s⁻¹ | koff [9]: 0.00462 s⁻¹
